Test results taken from the supplement of paper PMC9112550, “Optimization of the antimicrobial peptide Bac7 by deep mutational scanning” (BMC Biology, 2022).

These sequences were tested on Escherichia coli TOP10 (assay: shrunken log2 fold change of peptide-encoding DNA abundance (4.5 h post-induction vs induction); higher = less antimicrobial activity (less host growth inhibition)). Settings: time post-induction: 4.5 h; library: site-saturation at positions 5, 18, 19, 20.
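Also: peptides expressed intracellularly from a pBAD plasmid library in pooled LB shake-flask culture, induced with 0.3% L-arabinose, DNA abundance read by NGS, three biological replicates, DESeq2 with apeglm shrinkage.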

Sequence | shrunken log2 fold change
RRIRRRPPRLPRPRPRPKWMPRP | 0.338
RRIRRRPPRLPRPRPRPKYTPRP | -0.000338
RRIRRRPPRLPRPRPRPKYYPRP | -0.199
RRIRRRPPRLPRPRPRPLAIPRP | 0.0863
RRIRRRPPRLPRPRPRPLANPRP | 0.42
RRIRRRPPRLPRPRPRPLASPRP | 0.382
RRIRRRPPRLPRPRPRPLCFPRP | 0.898
RRIRRRPPRLPRPRPRPLCLPRP | 0.0544
RRIRRRPPRLPRPRPRPLCNPRP | 0.0189
RRIRRRPPRLPRPRPRPLCWPRP | 0.623
RRIRRRPPRLPRPRPRPLEFPRP | -0.0524
RRIRRRPPRLPRPRPRPLGQPRP | 0.00384
RRIRRRPPRLPRPRPRPLHTPRP | 0.321
RRIRRRPPRLPRPRPRPLHWPRP | 0.235
RRIRRRPPRLPRPRPRPLLRPRP | 0.44
RRIRRRPPRLPRPRPRPLMWPRP | 0.163
RRIRRRPPRLPRPRPRPLMYPRP | 0.0279
RRIRRRPPRLPRPRPRPLNLPRP | 0.0248
RRIRRRPPRLPRPRPRPLNNPRP | -0.338
RRIRRRPPRLPRPRPRPLPFPRP | -0.344
RRIRRRPPRLPRPRPRPLPHPRP | 0.485
RRIRRRPPRLPRPRPRPLQKPRP | 0.44
RRIRRRPPRLPRPRPRPLQLPRP | -0.101
RRIRRRPPRLPRPRPRPLRRPRP | 0.654
RRIRRRPPRLPRPRPRPLSEPRP | 0.382

Sequence | shrunken log2 fold change
RRIRRRPPRLPRPRPRPLSVPRP | 0.298
RRIRRRPPRLPRPRPRPLTRPRP | 0.234
RRIRRRPPRLPRPRPRPLVHPRP | 0.223
RRIRRRPPRLPRPRPRPLYEPRP | -0.0905
RRIRRRPPRLPRPRPRPLYSPRP | -0.0185
RRIRRRPPRLPRPRPRPMDIPRP | -0.168
RRIRRRPPRLPRPRPRPMDVPRP | 0.0427
RRIRRRPPRLPRPRPRPMEHPRP | 0.131
RRIRRRPPRLPRPRPRPMEIPRP | -0.0055
RRIRRRPPRLPRPRPRPMFNPRP | -0.146
RRIRRRPPRLPRPRPRPMIKPRP | 0.0444
RRIRRRPPRLPRPRPRPMKAPRP | 0.0483
RRIRRRPPRLPRPRPRPMLSPRP | 0.00534
RRIRRRPPRLPRPRPRPMMAPRP | 0.142
RRIRRRPPRLPRPRPRPMMIPRP | -0.185
RRIRRRPPRLPRPRPRPMNAPRP | 0.15
RRIRRRPPRLPRPRPRPMNQPRP | 0.0252
RRIRRRPPRLPRPRPRPMNVPRP | -0.156
RRIRRRPPRLPRPRPRPMPVPRP | 0.388
RRIRRRPPRLPRPRPRPMQDPRP | 0.452
RRIRRRPPRLPRPRPRPMQKPRP | 0.026
RRIRRRPPRLPRPRPRPMQLPRP | 0.596
RRIRRRPPRLPRPRPRPMQVPRP | -0.198
RRIRRRPPRLPRPRPRPMRNPRP | 0.959
RRIRRRPPRLPRPRPRPMSAPRP | 0.128

Sequence | shrunken log2 fold change
RRIRRRPPRLPRPRPRPMVCPRP | 0.0487
RRIRRRPPRLPRPRPRPMYRPRP | 0.0278
RRIRRRPPRLPRPRPRPNCCPRP | 0.0381
RRIRRRPPRLPRPRPRPNCGPRP | 0.315
RRIRRRPPRLPRPRPRPNCLPRP | 0.312
RRIRRRPPRLPRPRPRPNCMPRP | 0.0934
RRIRRRPPRLPRPRPRPNDAPRP | -0.0546
RRIRRRPPRLPRPRPRPNDFPRP | -0.189
RRIRRRPPRLPRPRPRPNDWPRP | 0.24
RRIRRRPPRLPRPRPRPNEKPRP | -0.023
RRIRRRPPRLPRPRPRPNEQPRP | 0.324
RRIRRRPPRLPRPRPRPNFDPRP | -0.102
RRIRRRPPRLPRPRPRPNFGPRP | 0.105
RRIRRRPPRLPRPRPRPNGKPRP | 0.02
RRIRRRPPRLPRPRPRPNGPPRP | 0.384
RRIRRRPPRLPRPRPRPNGRPRP | -0.0152
RRIRRRPPRLPRPRPRPNHKPRP | -0.226
RRIRRRPPRLPRPRPRPNICPRP | 0.0828
RRIRRRPPRLPRPRPRPNIHPRP | 0.564
RRIRRRPPRLPRPRPRPNIYPRP | -0.252
RRIRRRPPRLPRPRPRPNKGPRP | 0.128
RRIRRRPPRLPRPRPRPNLGPRP | 0.00298
RRIRRRPPRLPRPRPRPNMYPRP | -0.16
RRIRRRPPRLPRPRPRPNNTPRP | 0.00573
RRIRRRPPRLPRPRPRPNQIPRP | -0.349

Sequence | shrunken log2 fold change
RRIRRRPPRLPRPRPRPNRWPRP | 0.107
RRIRRRPPRLPRPRPRPNTIPRP | -0.372
RRIRRRPPRLPRPRPRPNTMPRP | -0.262
RRIRRRPPRLPRPRPRPNTWPRP | 0.0852
RRIRRRPPRLPRPRPRPNTYPRP | -0.336
RRIRRRPPRLPRPRPRPNVCPRP | 0.0167
RRIRRRPPRLPRPRPRPNVDPRP | -0.125
RRIRRRPPRLPRPRPRPNWCPRP | 0.177
RRIRRRPPRLPRPRPRPNWKPRP | -0.0144
RRIRRRPPRLPRPRPRPPADPRP | 0.781
RRIRRRPPRLPRPRPRPPAQPRP | 0.535
RRIRRRPPRLPRPRPRPPCAPRP | 0.667
RRIRRRPPRLPRPRPRPPDGPRP | 0.326
RRIRRRPPRLPRPRPRPPDRPRP | 0.21
RRIRRRPPRLPRPRPRPPDTPRP | 0.436
RRIRRRPPRLPRPRPRPPESPRP | 0.26
RRIRRRPPRLPRPRPRPPEVPRP | 0.821
RRIRRRPPRLPRPRPRPPFEPRP | 0.61
RRIRRRPPRLPRPRPRPPFGPRP | 0.453
RRIRRRPPRLPRPRPRPPGKPRP | 0.978
RRIRRRPPRLPRPRPRPPGSPRP | 0.413
RRIRRRPPRLPRPRPRPPGVPRP | 0.704
RRIRRRPPRLPRPRPRPPHGPRP | 0.596
RRIRRRPPRLPRPRPRPPKPPRP | 0.824
RRIRRRPPRLPRPRPRPPKTPRP | 0.108

Sequence | shrunken log2 fold change
RRIRRRPPRLPRPRPRPPMFPRP | 0.26
RRIRRRPPRLPRPRPRPPMMPRP | 0.21
RRIRRRPPRLPRPRPRPPMVPRP | 0.285
RRIRRRPPRLPRPRPRPPNDPRP | 0.605
RRIRRRPPRLPRPRPRPPNIPRP | -0.0641
RRIRRRPPRLPRPRPRPPNVPRP | 0.115
RRIRRRPPRLPRPRPRPPPDPRP | 1.35
RRIRRRPPRLPRPRPRPPQPPRP | 1.26
RRIRRRPPRLPRPRPRPPRVPRP | 1.18
RRIRRRPPRLPRPRPRPPTSPRP | 0.54
RRIRRRPPRLPRPRPRPPWVPRP | 0.535
RRIRRRPPRLPRPRPRPPYAPRP | 0.774
RRIRRRPPRLPRPRPRPPYEPRP | 0.492
RRIRRRPPRLPRPRPRPPYSPRP | 0.122
RRIRRRPPRLPRPRPRPPYWPRP | 0.625
RRIRRRPPRLPRPRPRPQAAPRP | 0.0105
RRIRRRPPRLPRPRPRPQCVPRP | 0.0427
RRIRRRPPRLPRPRPRPQFRPRP | -0.165
RRIRRRPPRLPRPRPRPQFSPRP | -0.326
RRIRRRPPRLPRPRPRPQGGPRP | 0.0141
RRIRRRPPRLPRPRPRPQGMPRP | 0.133
RRIRRRPPRLPRPRPRPQGWPRP | 0.294
RRIRRRPPRLPRPRPRPQKKPRP | -0.0695
RRIRRRPPRLPRPRPRPQMEPRP | 0.0751
RRIRRRPPRLPRPRPRPQMYPRP | -0.183

Sequence | shrunken log2 fold change
RRIRRRPPRLPRPRPRPQPAPRP | 0.387
RRIRRRPPRLPRPRPRPQPHPRP | 0.396
RRIRRRPPRLPRPRPRPQPRPRP | 0.5
RRIRRRPPRLPRPRPRPQQHPRP | -0.0327
RRIRRRPPRLPRPRPRPQQPPRP | 0.325
RRIRRRPPRLPRPRPRPQRDPRP | 0.179
RRIRRRPPRLPRPRPRPQRFPRP | 0.294
RRIRRRPPRLPRPRPRPQTEPRP | -0.0572
RRIRRRPPRLPRPRPRPQTMPRP | 0.0791
RRIRRRPPRLPRPRPRPQWMPRP | 0.139
RRIRRRPPRLPRPRPRPQYLPRP | -0.0489
RRIRRRPPRLPRPRPRPQYYPRP | -0.968
RRIRRRPPRLPRPRPRPRAYPRP | -0.0105
RRIRRRPPRLPRPRPRPRESPRP | 0.59
RRIRRRPPRLPRPRPRPRFCPRP | 0.421
RRIRRRPPRLPRPRPRPRGVPRP | 0.816
RRIRRRPPRLPRPRPRPRHLPRP | 0.197
RRIRRRPPRLPRPRPRPRHTPRP | 0.268
RRIRRRPPRLPRPRPRPRIKPRP | 0.142
RRIRRRPPRLPRPRPRPRIRPRP | 0.179
RRIRRRPPRLPRPRPRPRIWPRP | 0.666
RRIRRRPPRLPRPRPRPRMHPRP | 0.516
RRIRRRPPRLPRPRPRPRMIPRP | -0.136
RRIRRRPPRLPRPRPRPRMSPRP | 0.938
RRIRRRPPRLPRPRPRPRNVPRP | 0.226
